Test results from patent US20230287143A1.

What was measured:
[1] = target: human 4-1BB (human) (UniProt Q07011); assay: FACS; panel C
[2] = target: human 4-1BB (human) (UniProt Q07011); assay: FACS; panel A
[3] = target: CHO-K1/hu OX40 (human) (UniProt P43489); assay: FACS
CHO-K1/hu OX40 (human), sequence (P43489 29-277): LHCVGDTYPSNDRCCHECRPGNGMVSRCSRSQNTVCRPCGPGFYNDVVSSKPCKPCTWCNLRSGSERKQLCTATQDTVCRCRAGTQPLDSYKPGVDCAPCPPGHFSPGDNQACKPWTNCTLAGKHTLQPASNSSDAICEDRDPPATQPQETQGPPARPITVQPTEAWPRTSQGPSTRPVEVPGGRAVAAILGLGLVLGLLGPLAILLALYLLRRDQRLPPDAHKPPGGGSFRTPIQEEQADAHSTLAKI

human 4-1BB (human), sequence (Q07011 24-255): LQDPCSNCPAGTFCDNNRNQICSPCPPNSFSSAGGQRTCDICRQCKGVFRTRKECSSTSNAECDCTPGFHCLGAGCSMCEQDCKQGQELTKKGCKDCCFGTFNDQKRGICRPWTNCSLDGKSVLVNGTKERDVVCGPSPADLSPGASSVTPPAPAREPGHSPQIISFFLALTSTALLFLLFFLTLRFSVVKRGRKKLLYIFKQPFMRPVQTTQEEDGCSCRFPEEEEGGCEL

Row | Substance | EC50 [1] [nM] | EC50 [2] [nM] | EC50 [3] [nM]
1 | Anti-4-1BB monoclonal antibody Urelumab analog (hIgG4) | 1.01 | 0.347 | 
2 | Pogalizumab |  |  | 1.15
